Laboratory results from publication PMC5050915, “CYP79D enzymes contribute to jasmonic acid-induced formation of aldoximes and other nitrogenous volatiles in two Erythroxylum species” (BMC Plant Biology, 2016).

Experiments:
CYP79D61 = target: T1, CYP79D61 (Erythroxylum fischeri, UniProt A0A1D8QQQ4); experiment: aldoxime formation by recombinant yeast microsomes, LC-MS/MS; format: biochemical; conditions: 1 mM substrate, 1 mM NADPH, 75 mM sodium phosphate pH 7.0, 25 °C
T1 construct: complete ORF in pESC-Leu2d, Saccharomyces cerevisiae WAT11 microsomes
T1 sequence (A0A1D8QQQ4 1-531): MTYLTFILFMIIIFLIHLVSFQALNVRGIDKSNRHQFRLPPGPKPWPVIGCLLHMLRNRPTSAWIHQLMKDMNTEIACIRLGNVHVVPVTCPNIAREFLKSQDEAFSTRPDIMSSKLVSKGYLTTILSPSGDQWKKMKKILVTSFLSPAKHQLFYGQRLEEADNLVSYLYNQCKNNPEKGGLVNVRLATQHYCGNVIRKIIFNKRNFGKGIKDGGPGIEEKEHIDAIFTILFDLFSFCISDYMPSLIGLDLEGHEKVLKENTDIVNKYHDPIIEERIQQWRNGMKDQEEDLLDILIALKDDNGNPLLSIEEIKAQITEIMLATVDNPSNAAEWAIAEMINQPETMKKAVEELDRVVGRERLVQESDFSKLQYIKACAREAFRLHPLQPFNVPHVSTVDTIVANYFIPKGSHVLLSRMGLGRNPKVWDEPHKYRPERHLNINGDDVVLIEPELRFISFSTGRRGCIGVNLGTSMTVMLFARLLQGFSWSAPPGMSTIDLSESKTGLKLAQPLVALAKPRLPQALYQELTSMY

[1] = substrate: N[C@@H](Cc1ccccc1)C(=O)O; experiment: as above; format: biochemical, Erythroxylum fischeri; conditions: 1 mM NADPH, 75 mM sodium phosphate pH 7.0, 25 °C
[2] = substrate: N[C@@H](Cc1c[nH]c2ccccc12)C(=O)O; experiment: as above; format: biochemical, Erythroxylum fischeri; conditions: 1 mM NADPH, 75 mM sodium phosphate pH 7.0, 25 °C
[3] = substrate: CC[C@H](C)[C@H](N)C(=O)O; experiment: cells, lysate or membranes; conditions: 1 mM NADPH, 75 mM sodium phosphate pH 7.0, 25 °C
[4] = substrate: N[C@@H](Cc1ccc(O)cc1)C(=O)O; experiment: cells, lysate or membranes; conditions: 1 mM NADPH, 75 mM sodium phosphate pH 7.0, 25 °C
[5] = substrate: N[C@@H](Cc1ccccc1)C(=O)O; experiment: aldoxime formation by recombinant yeast microsomes, LC-MS/MS; format: biochemical, Erythroxylum coca; conditions: 1 mM NADPH, 75 mM sodium phosphate pH 7.0, 25 °C
[6] = substrate: N[C@@H](Cc1c[nH]c2ccccc12)C(=O)O; experiment: as above; format: biochemical, Erythroxylum coca; conditions: 1 mM NADPH, 75 mM sodium phosphate pH 7.0, 25 °C
[7] = substrate: N[C@@H](Cc1c[nH]c2ccccc12)C(=O)O; experiment: as above; format: biochemical, Erythroxylum coca; conditions: 1 mM NADPH, 75 mM sodium phosphate pH 7.0, 25 °C; remark: listed apart in the source
Source text: aldoxime formation by recombinant yeast microsomes, LC-MS/MS on CYP79D63

## N[C@@H](Cc1ccccc1)C(=O)O [L-Phe]
CYP79D61
  aldoxime formation by recombinant yeast microsomes, LC-MS/MS: CYP79D62, CYP79D60, and CYP79D61 accepted all tested amino acids

B1: CYP79D60 (Erythroxylum fischeri) (protein)
chain: MTYLILILIMIITFLIHLVSFQALNVRGSDKSNRQQFQLPPGPKPWPVIGCLLQMLRNRPTSAWIHQLMKDMNTEIACIRLGNVHVIPVTCPNIAREFLKSQDEAFSSRPDFMSNKLVSKGYLTTALSPSGDQWKKMKKILVTSFLSPAKHKLFYGKRLEEADHLVSYLYNQCKNNPEKGGLVNVRLATQHYCGNVIRKIVFNKRNFGKGMEDGGPGIEEKEHIDALFTILFYLFSFCISDYMPSLIGLDLEGHEKVLRENTDIVNKYHDPIIEERIQQWRNGMKDQEEDLLDILIALKDDNGSPLLSIEEIKAQITEIMIAAVDNPSNAAEWAIAEMINQPETMKKAVEELDRAVGRERLVQESDFSKLKYIKACAREAFRLHPMEAFNVPHVSTVDTIVANYFIPKGSHVLLSRMGIGRNPKVWDEPHKYKPERHLKNGDDVVLTEPELRFISFSTGRRGCIGVNLGTSMTVMLFARLLQGFSWSAPPGMSTIDLSESKTGLKLAQPLVALAKPRLPQALYQELTSCINHS
notes: complete ORF in pESC-Leu2d, Saccharomyces cerevisiae WAT11 microsomes
[1]
  Km: 580 ± 50 µM
[2]
  Km: 2740 ± 110 µM
[3]
  Km: 1280 ± 250 µM
[4]
  Km: 6090 ± 1320 µM

B2: CYP79D62 (Erythroxylum coca) (protein)
chain: MTYLILILIMIILVSFQALNVRCNDKSNRHQLQLPPGPKPWPVIGCLPQMLRNRPTFAWIHQLMKDMNTEIACIRLGNVHVIPVTCPNIAREFLKSQDEAFSSRPDFMSNKLVSKRYLTTALSPSGDQWKKMKKILVTSFLSPAKHQLFYGKRLEEADNLVSYLYGQCKNNPEKGGLVNVRLATRHYCGNVIRKIVFNKRNFGEGMKDGGPGIEEKEHIDAIFTILSYLFSFCISDYMPSLIGLDLEGHEKVLKENTDIVNKYHDPIIEERIQQWRNGMKDREEDLLDILIALKDDNGNPLLSIEEIKAQITEIILATVDNPSNAAEWAIAEMINQPEMMKKAVEELDRVVGRERLVQESDFVKLQYVKACAREAFRLHPLEPFNIPHVSTVDTTVANYFIPKGSHVLLSRMGLGRNPKVWDEPHKYKPERHLSNGDDVVLIEPELRFISFSTGRRGCIGVNLGTSMTVMLFARLLQGFSWSAPPGKLAINLNESKTGLALAQPLVALAKPRLPQALYQELTSCINHS
notes: as for B1
[5]
  Km: 670 ± 70 µM
[6]
  Km: 1090 ± 40 µM
[3]
  Km: 3270 ± 420 µM
[4]
  Km: 4990 ± 460 µM

B3: CYP79D63 (Erythroxylum coca) (protein)
chain: MTYLILILIMIISFLIHLVSFQALNVRGSGKSNRHQFQLPPGPKPWPVIGCLPQMLRNRPTFAWIHQLMKDMNTEIACIRLGSIHVIPVTCPNIAREILKSQDEAFSSRPDFMSSTLVSRGYLATTLSPPGDQWKKMRKILVTSCLSPAKHRLFYRKRLEVADNLVSYLYSQCKDNPEKGGLVNVRLATQHYCGNVIRKIVFNKRNFGKGMKDGGPGIEEKEHIDALFTILFYVFSFCISDYMPSLIGLDLEGHEKVLKENTDIVNKYHDPIIQERIRQWRNGMKDQEEDLLDILIALKDNNGNPLLSIEEIKAQITEIVLASVDNPSNAAEWAIAEMINQPKIMKKAVEELDSVVGSERLVQESDFSKLQYVKACAREAFRLHPMQPFNVPHVSTMDTTIANYFIPKGSHVLLSRMRLGRNSKVWDEPHKYRPERHLSNGDDVLLIEPELRFISFSTGRRGCIGVNLGTSMTIMLFARLLQGFNWSAPPGKSAVDLNESKIGLTLAQPLVALAKPRLPQALYQELTSCINHS
notes: as for B1
[7]
  Km: 480 ± 50 µM
